Consider six molecules from patent publication US20260274980A1 (BIOARCTIC, published 2026).

Assay [1] addresses T1, truncated hTfR1 of SEQ ID NO:86 (human, UniProt P02786 122-760).
T1 construct: Given only as 'truncated hTfR1'; amine-coupled to a CM5 chip for SPR; also called human TfR1
Briefly: SPR (Biacore 8K), single-cycle kinetics on immobilised hTfR1 (SEQ ID NO:86), as in Example 12 [column VH first, row Human TfR1].

The target of assay [2] is T2, truncated cTfR1 of SEQ ID NO:87 (cynomolgus, UniProt Q5RDH6 122-760 (Pongo abelii entry), limits assumed).
T2 construct: Printed only as 'truncated cTfR1'; amine-coupled to a CM5 chip for SPR; also called cynomolgus TfR1
T2 chain: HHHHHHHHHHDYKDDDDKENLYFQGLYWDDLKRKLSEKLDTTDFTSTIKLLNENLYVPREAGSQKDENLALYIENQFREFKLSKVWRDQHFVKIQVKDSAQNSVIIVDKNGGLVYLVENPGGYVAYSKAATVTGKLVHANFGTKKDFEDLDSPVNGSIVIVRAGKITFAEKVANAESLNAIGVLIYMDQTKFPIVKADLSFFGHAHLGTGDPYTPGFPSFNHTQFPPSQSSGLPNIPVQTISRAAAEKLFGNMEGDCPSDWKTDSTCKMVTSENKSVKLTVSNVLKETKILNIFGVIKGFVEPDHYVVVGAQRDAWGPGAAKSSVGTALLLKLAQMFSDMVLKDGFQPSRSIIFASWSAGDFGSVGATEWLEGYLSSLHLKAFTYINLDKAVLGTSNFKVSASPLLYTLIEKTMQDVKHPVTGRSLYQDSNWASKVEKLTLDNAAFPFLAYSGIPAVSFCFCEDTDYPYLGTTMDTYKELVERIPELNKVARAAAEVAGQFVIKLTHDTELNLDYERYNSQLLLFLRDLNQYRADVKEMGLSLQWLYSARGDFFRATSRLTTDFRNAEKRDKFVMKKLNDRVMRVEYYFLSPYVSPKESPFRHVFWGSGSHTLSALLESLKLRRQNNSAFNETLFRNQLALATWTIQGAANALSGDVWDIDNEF
The experiment in a line: SPR (Biacore 8K), single-cycle kinetics on immobilised cTfR1 (SEQ ID NO:87), as in Example 12 [column VH first, row Cynomolgus TfR1].

For assay [3], the target named is T2, truncated cTfR1 of SEQ ID NO:87. Briefly: SPR (Biacore 8K), single-cycle kinetics on immobilised cTfR1 (SEQ ID NO:87), as in Example 12 [column VL first, row Cynomolgus TfR1].
The target in assay [4] is T3, human transferrin receptor 1 (hTfR1) on cell surfaces (human, UniProt P02786 1-760).
T3 construct: Endogenous receptor on hCMEC/D3, THP-1, K562 and Ramos cells; also called CD71; endogenous hTfR1
Briefly: flow cytometry on K562 cells (hTfR1 on the surface), Fc receptors blocked, overnight at 4 °C, detection with anti-human IgG-Alexa Fluor 488. The method, then: Fcγ receptors were blocked using Fc receptor blocker (Innovex biosciences, #NB309-4X-40) for 30 min at 4° C., after which the cells were washed in PBS. […] The plate was incubated at 4° C. overnight. […] Staining was carried out for 30 min at 4° C. […] The cells were finally resuspended in 200 μl PBS with 1% BSA and acquired using a BD FACSLyric flow cytometer system (BD Biosciences). Samples were analyzed using flowJo software (BD Biosciences).

Assay [5] has as its target T4, cynomolgus TfR1 (recombinant, construct not stated) (cynomolgus, UniProt H9EXL1 90-760 (rhesus entry)).
T4 construct: also called cTfR1; cynoTfR
Briefly: indirect ELISA of Fabs as for hTfR1, on cTfR1 (coating construct not stated), A450 [upper right panel cTfR1].

Assay [6] deals with T1, truncated hTfR1 of SEQ ID NO:86. Briefly: SPR, hTfR1 amine-coupled, scFv in bispecific format injected.

B1: mAb158-Gen2D-h26D3 VH first (bispecific antibody, human IgG1, kappa)
heavy 1: not shown
heavy 2: not shown
light: DIVMTQAPLSLPVSLGDQASISCRSSQSIVHSNGNTYLEWYLQKPGQSPKLLIYKVSNRFSGVPDRFSGSGSGTDFTLKISRVEAEDLGIYYCFQGSHVPPTFGGGTKLEIKRTVAAPSVFIFPPSDEQLKSGTASVVCLLNNFYPREAKVQWKVDNALQSGNSQESVTEQDSKDSTYSLSSTLTLSKADYEKHKVYACEVTHQGLSSPVTKSFNRGEC
notes: Knob-into-hole antibody; also called Gen 2D construct, VH first
For B1, the binding result in assay [1] and in assay [2] was “binds” throughout.

B2: mAb158-Gen2D-h26D3 VL first (bispecific antibody, human IgG1, kappa)
heavy 1: not shown
heavy 2: not shown
light: DIVMTQAPLSLPVSLGDQASISCRSSQSIVHSNGNTYLEWYLQKPGQSPKLLIYKVSNRFSGVPDRFSGSGSGTDFTLKISRVEAEDLGIYYCFQGSHVPPTFGGGTKLEIKRTVAAPSVFIFPPSDEQLKSGTASVVCLLNNFYPREAKVQWKVDNALQSGNSQESVTEQDSKDSTYSLSSTLTLSKADYEKHKVYACEVTHQGLSSPVTKSFNRGEC
notes: Knob-into-hole antibody; also called Gen 2D construct, VL first
As to B2, the binding result in assay [3] was “binds”. Moreover, the “EC50 (read off the curve)” value in assay [4] is approximately 30 nM.

B3: h26D3-Fab (Fab, V domains shown)
VH: EVQLVQSGAEVKKPGSSVKVSCKASGYIFTDYNMDWVRQAPGQGLEWIGDINPDYDTTSYNEKFKGRATLTVDKSTSTAYMELSSLRSEDTAVYYCARGGYSGSSYYHPMDYWGQGTLVTVSS
VL: DIQMTQSPSSVSASVGDRVTITCKSSQSLLYSTNQKNYLAWYQQKPGKAPKLLIYWASTRESGVPSRFSGSGSGTDFTLTISSLQPEDFATYYCQQYFIYPRTFGQGTKVEIK
notes: His-tagged Fab from ExpiCHO; also called humanized 26D3 Fab
Take B3: the “EC50 (read off the curve)” value in assay [5] is approximately 1 nM.

B4: bispecific binding molecule (format of WO2022/258841) comprising h26D3 LC1 scFv (bispecific antibody, V domains shown)
VH: EVQLVQSGAEVKKPGSSVKVSCKASGYIFTDYNMDWVRQAPGQGLEWIGDINPDYDTTSYNEKFKGRATLTVDKSTSTAYMELSSLRSEDTAVYYCARGGYSGSSYYHPMDYWGQGTLVTVSS
VL: DIQMTQSPSSVSASVGDRVTITCKSSQSLLASTNQKNYLAWYQQKPGKAPKLLIYWASTRESGVPSRFSGSGSGTDFTLTISSLQPEDFATYYCQQYFIYPRTFGQGTKVEIK
B4 displayed a Kd in assay [6] of approximately 40 nM.

B5: bispecific binding molecule (format of WO2022/258841) comprising h26D3 HC6 scFv (bispecific antibody, V domains shown)
VH: EVQLVQSGAEVKKPGSSVKVSCKASGYIFTDYNMDWVRQAPGQGLEWIGDINPDADTTSYNEKFKGRATLTVDKSTSTAYMELSSLRSEDTAVYYCARGGYSGSSYYHPMDYWGQGTLVTVSS
VL: DIQMTQSPSSVSASVGDRVTITCKSSQSLLYSTNQKNYLAWYQQKPGKAPKLLIYWASTRESGVPSRFSGSGSGTDFTLTISSLQPEDFATYYCQQYFIYPRTFGQGTKVEIK
In assay [6], B5 showed a Kd of 100 to 200 nM.

B6: bispecific binding molecule (format of WO2022/258841) comprising h26D3 LC5 scFv (bispecific antibody, V domains shown)
VH: EVQLVQSGAEVKKPGSSVKVSCKASGYIFTDYNMDWVRQAPGQGLEWIGDINPDYDTTSYNEKFKGRATLTVDKSTSTAYMELSSLRSEDTAVYYCARGGYSGSSYYHPMDYWGQGTLVTVSS
VL: DIQMTQSPSSVSASVGDRVTITCKSSQSLLYSTNQKNYLAWYQQKPGKAPKLLIYWASTRESGVPSRFSGSGSGTDFTLTISSLQPEDFATYYCQQAFIYPRTFGQGTKVEIK
B6 gave a dissociation constant (Kd) in assay [6] of 400 to 500 nM.
